{"source": "patent US7105164B1", "about": "“HIV-specific cytotoxic T-cell responses” (priority 1999, dated 2006)", "target": "T1, HLA-A2 on T2 cells (Homo sapiens, UniProt P04439, D140Y/D185E/D98H/E176V/E277Q/G131W/G231S/I119V/I121R/I166T/I218V/L300P/L318F/N151K/N90K/P208A/P217A/Q86G/Q94H/R138H/R169H/T345S)", "T1 construct": "T2 cell line expressing the HLA-A2 molecules was obtained from Dr Peter Creswell; endogenous in cells; host or cells: T2 cell line (TAP-deficient human cell line)", "test": "in vitro HLA-A2 stabilization (peptide-induced MHC class 1 assembly assay, FACS) on T2 cells", "format": "cell-based", "settings": "FIG. 1; for binding to and stabilization of membrane-bound HLA-A2 (shift of fluorescent peak): BB7.2 antibody, FACS", "protocol": "Location of the potential CTL containing motifs of the HIV-1 (LAI) Rev protein has been predicted by the reported peptide-binding motif algorithms. […] The ability of the peptides containing these motifs to bind and stabilize membrane-bound HLA-A2 molecule was assessed using the T2 cell line. The cell line has been well documented to have defective TAP transporter function resulting in the majority of the intracellularly generated peptides being unable to be transported into the endoplasmic reticulum to associate with the newly synthesized HLA class 1 molecules, i.e. HLA-A2 (see references 4, 5). […] Upon interaction with suitable peptides introduced exogenously, the stability of the HLA-A2 molecules can be restored.\nT2 cell line expressing the HLA-A2 molecules was obtained from Dr Peter Creswell at the Howard Hughes Research Institute of Yale University. The cells were propagated in Iscove's complete medium (Iscove's medium supplemented with 10% heat-inactivated bovine serum, 120.0 units per ml of penicilin G sodium, 120 μg per ml of streptomycin sulphate, and 0.35 mg per ml of L-glutamine). The ability of individual 8 to 13 mer peptides, prepared as described in Example 1 and identified in Table 1, to bind and modulate the stability of the A2 molecules on T2 cells was determined using a peptide-induced MHC class 1 assembly assay, which was modified from a protocol described by Yuping Deng et al. (ref. 6).\nIn essence, 1×10^6 T2 cells were incubated with a specified concentration of the test peptide in 250.0 μl of Iscove's serum-free medium (Iscove's medium supplemented with 120.0 units per ml of penicillin G sodium, 120.0 μg per ml of streptomycin sulphate and 0.35 mg per ml of L-glutamine) in a sterile Eppendorf tube at 37° C. overnight. The cells were then incubated on ice for 30 min before 1.0 ml of Iscove's complete medium supplemented with 5.0 μg per ml of brefeldin A, 12.5 μg per ml of anisomycin and 5.0 μg per ml of cyclohexamide was added. The samples were then incubated for 3.0 hr in a 37° C. CO2 incubator.\nIn the presence of the drugs, further protein synthesis and intracellular delivery of HLA-A2 molecules to the cell surface are inhibited, and de-stabilization of the conformation of the membrane-bound class 1 molecules at the physiological temperature occurs.\nThe cells were then washed twice with ice-cold PBA (a buffer containing 0.9% sodium chloride, 0.5% bovine serum albumin and 0.02% sodium azide). 100.0 μl of PBA containing 5.0 μg of a conformation-sensitive HLA-A2-specific mouse monoclonal antibody, BB7.2 (ref. 7), was then added to each test sample. The reaction was allowed to take place on ice for 45 min. The cells were then washed three times with ice-cold PBA.\nThe binding of BB7.2 was then detected by adding […] containing 1.0 μg of goat anti-mouse IgG F(ab′) fluorescein (FITC) conjugate to each cell sample. After 30 min incubation on ice, the cells were washed twice with PBA, and twice again with PBS, pH 7.2. Cells were fixed immediately after washing was completed by adding 100.0 μl of 1.0% paraformaldehyde to the cell pellet. The cells were gently resuspended and were FACS analysed usually within three days after the experiments were completed.\nThe fluorescence index, which is an indicator for increased density of membrane-bound A2 molecules, was calculated by dividing the mean fluorescence of an experimental sample (peptide treated T2 cells) by the mean fluorescence of the control sample (T2 cells not treated with peptide).", "note": "“Also recorded” adds a separate entry of the source.", "data": [{"sequence": "ILVESPAVL (Human immunodeficiency virus type 1) [CLP-72]", "values": [{"measurement": "binding to and stabilization of membrane-bound HLA-A2 (shift of fluorescent peak)", "value": "bound to HLA-A2 on T2 cells; also recorded: able to bind and stabilize; also recorded: capable of binding to HLA-A2 on T2 cells"}, {"measurement": "order of potency by comparison of fluorescence indices", "value": "CLP-177>CLP-72>CLP-178>CLP-182"}]}, {"sequence": "PLQLPPLERLIL [CLP-182]", "values": [{"measurement": "binding to and stabilization of membrane-bound HLA-A2 (shift of fluorescent peak)", "value": "bound to HLA-A2 on T2 cells; also recorded: able to bind and stabilize; also recorded: capable of binding to HLA-A2 on T2 cells"}, {"measurement": "order of potency by comparison of fluorescence indices", "value": "CLP-177>CLP-72>CLP-178>CLP-182"}]}, {"sequence": "YLGRSAEPV (Human immunodeficiency virus type 1) [CLP-177]", "values": [{"measurement": "binding to and stabilization of membrane-bound HLA-A2 (shift of fluorescent peak)", "value": "bound to HLA-A2 on T2 cells; also recorded: able to bind and stabilize; also recorded: capable of binding to HLA-A2 on T2 cells"}, {"measurement": "order of potency by comparison of fluorescence indices", "value": "CLP-177>CLP-72>CLP-178>CLP-182"}]}, {"sequence": "YLGRSAEPVPL (Human immunodeficiency virus type 1) [CLP-178]", "values": [{"measurement": "binding to and stabilization of membrane-bound HLA-A2 (shift of fluorescent peak)", "value": "bound to HLA-A2 on T2 cells; also recorded: able to bind and stabilize; also recorded: capable of binding to HLA-A2 on T2 cells"}, {"measurement": "order of potency by comparison of fluorescence indices", "value": "CLP-177>CLP-72>CLP-178>CLP-182"}]}]}
